The source of these data is US20190085055A1.

One experiment concerns the target D3H44 light chain S176L. Description: LCCA (SPR), competitor L2 WT.
The target in experiment [1] is D3H44 light chain, wild type. Description: LCCA (SPR), competitor L1 S176L.
Experiment [2] deals with D3H44 light chain P44W. Description: LCCA (SPR), competitor L1 F98L.
Experiment [3] has as its target D3H44 light chain F98A. Description: LCCA (SPR), competitor L1 P44W.
For experiment [4], the target named is D3H44 light chain F98W. In words: LCCA (SPR), competitor L1 P44W.
In experiment [5] the target is D3H44 light chain P44W. In words: LCCA (SPR), competitor L1 Y87G.
Experiment [6] concerns the target D3H44 light chain P44W. In words: LCCA (SPR), competitor L2 F98A.
In experiment [7] the target is D3H44 light chain P44W. Description: LCCA (SPR), competitor L2 F98W.
The target in experiment [8] is D3H44 light chain F98L. Description: LCCA (SPR), competitor L2 P44W.
Another experiment addresses D3H44 light chain Y87G. In words: LCCA (SPR), competitor L2 P44W.
Experiment [9] deals with D3H44 light chain F98L. In words: LCCA (SPR), competitor L1 P44W.
The target of experiment [10] is D3H44 light chain P44W. Description: LCCA (SPR), competitor L2 F98L.
Experiment [11] addresses D3H44 light chain L89R_F98T. Description: LCCA (SPR), competitor L2 WT.
The target of experiment [12] is D3H44 light chain, wild type. Description: LCCA (SPR), competitor L1 L89R_F98T.
The target of experiment [13] is D3H44 light chain F98A. Description: LCCA (SPR), competitor L2 WT.
The target of experiment [14] is D3H44 light chain F98L. In words: LCCA (SPR), competitor L1 WT.
Experiment [15] has as its target D3H44 light chain F98W. In words: LCCA (SPR), competitor L1 F98A.
Experiment [16] deals with D3H44 light chain, wild type. In words: LCCA (SPR), competitor L1 F98A.
The target in experiment [17] is D3H44 light chain F98W. Description: LCCA (SPR), competitor L1 F98L.
Experiment [18] deals with D3H44 light chain F98A. In words: LCCA (SPR), competitor L2 F98W.
For experiment [19], the target named is D3H44 light chain F98L. In words: LCCA (SPR), competitor L2 F98W.
Experiment [20] addresses D3H44 light chain, wild type. Description: LCCA (SPR), competitor L2 F98L.
Experiment [21] concerns the target D3H44 light chain L89R_F98W. In words: LCCA (SPR), competitor L2 F98Y.
A further experiment addresses D3H44 light chain F98Y. In words: LCCA (SPR), competitor L1 L89R_F98W.
Experiment [22] concerns the target D3H44 light chain F98A. Description: LCCA (SPR), competitor L1 Q38E.
In experiment [23] the target is D3H44 light chain F98A. Description: LCCA (SPR), competitor L1 Q38R.
The target of another experiment is D3H44 light chain Q38E. In words: LCCA (SPR), competitor L2 F98A.
The next experiment concerns the target D3H44 light chain Q38R. In words: LCCA (SPR), competitor L2 F98A.

Sequence of D3H44 light chain, wild type (light, as listed by the source): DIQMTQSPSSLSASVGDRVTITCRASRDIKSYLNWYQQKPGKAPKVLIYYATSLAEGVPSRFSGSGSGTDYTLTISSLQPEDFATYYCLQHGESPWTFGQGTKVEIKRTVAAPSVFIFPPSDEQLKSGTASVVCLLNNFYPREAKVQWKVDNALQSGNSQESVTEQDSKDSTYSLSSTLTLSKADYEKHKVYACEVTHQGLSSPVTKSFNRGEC
Sequence of D3H44 light chain L89R_F98W (light, as listed by the source): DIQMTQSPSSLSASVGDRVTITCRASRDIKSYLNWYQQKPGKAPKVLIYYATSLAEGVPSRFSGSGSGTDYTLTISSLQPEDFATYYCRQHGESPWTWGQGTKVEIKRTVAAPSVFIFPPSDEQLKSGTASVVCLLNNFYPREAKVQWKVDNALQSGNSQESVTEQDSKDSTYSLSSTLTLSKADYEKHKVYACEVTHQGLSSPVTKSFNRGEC
Sequence of D3H44 light chain Q38R (light, as listed by the source): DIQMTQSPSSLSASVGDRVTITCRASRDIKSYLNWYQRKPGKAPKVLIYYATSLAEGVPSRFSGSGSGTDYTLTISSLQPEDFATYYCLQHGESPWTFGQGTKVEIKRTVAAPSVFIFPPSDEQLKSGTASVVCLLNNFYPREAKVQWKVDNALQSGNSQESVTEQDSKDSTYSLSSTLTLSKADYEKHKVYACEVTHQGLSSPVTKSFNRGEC
Sequence of D3H44 light chain Q38E (light, as listed by the source limits assumed): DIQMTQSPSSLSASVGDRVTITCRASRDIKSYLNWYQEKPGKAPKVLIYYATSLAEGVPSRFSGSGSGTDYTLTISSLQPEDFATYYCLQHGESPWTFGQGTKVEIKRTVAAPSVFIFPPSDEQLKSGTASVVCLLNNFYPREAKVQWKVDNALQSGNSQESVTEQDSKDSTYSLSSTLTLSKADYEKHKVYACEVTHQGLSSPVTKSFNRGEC
Sequence of D3H44 light chain F98Y (light, as listed by the source limits assumed): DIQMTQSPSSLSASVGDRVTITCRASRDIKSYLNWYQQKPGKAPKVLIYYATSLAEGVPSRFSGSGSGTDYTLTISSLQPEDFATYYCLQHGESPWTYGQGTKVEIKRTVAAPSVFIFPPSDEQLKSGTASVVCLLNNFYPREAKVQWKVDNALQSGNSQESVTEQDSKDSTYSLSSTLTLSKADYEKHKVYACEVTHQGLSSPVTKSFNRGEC
Sequence of D3H44 light chain L89R_F98T (light, as listed by the source limits assumed): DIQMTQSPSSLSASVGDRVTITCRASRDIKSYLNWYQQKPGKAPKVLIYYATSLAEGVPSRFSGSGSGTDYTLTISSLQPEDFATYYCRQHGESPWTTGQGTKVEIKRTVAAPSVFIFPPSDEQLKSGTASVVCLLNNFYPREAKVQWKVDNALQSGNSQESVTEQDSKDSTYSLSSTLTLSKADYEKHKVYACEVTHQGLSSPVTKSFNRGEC
Sequence of D3H44 light chain Y87G (light, as listed by the source limits assumed): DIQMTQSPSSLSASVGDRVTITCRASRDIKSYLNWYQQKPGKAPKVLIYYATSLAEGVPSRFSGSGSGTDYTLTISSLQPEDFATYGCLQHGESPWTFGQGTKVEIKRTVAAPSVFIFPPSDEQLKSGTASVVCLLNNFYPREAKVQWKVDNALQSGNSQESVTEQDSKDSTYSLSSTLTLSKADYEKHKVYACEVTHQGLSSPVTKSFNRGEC
Sequence of D3H44 light chain S176L (light, as listed by the source): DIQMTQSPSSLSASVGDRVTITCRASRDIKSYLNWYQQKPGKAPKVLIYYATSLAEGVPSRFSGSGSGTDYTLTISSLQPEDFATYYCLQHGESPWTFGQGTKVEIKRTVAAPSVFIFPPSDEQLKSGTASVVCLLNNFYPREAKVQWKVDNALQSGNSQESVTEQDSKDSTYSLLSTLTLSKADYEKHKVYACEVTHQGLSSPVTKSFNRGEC

D3H44 heavy chain (Fab format) S188L came in with an H2 L1 of H2 L2:H2 L1 (screen) with D3H44 light chain S176L of 9.32. For the same substance, the H2 L2 of H2 L2:H2 L1 (screen) in [1] came to 92.5.
In the case of “D3H44 heavy chain (Fab format) V37A_W103H”, the figures for the H2 L2 of H2 L2:H2 L1 (screen) in the experiment with D3H44 light chain P44W [2] and with D3H44 light chain P44W [5] were 66.5 and 53.1, respectively. In addition, the H1 L2 of H1 L1:H1 L2 (screen) with D3H44 light chain F98A [3] stood at 8.79; with D3H44 light chain F98W [4], 19.6. The same substance gave an H1 L2 of H1 L1:H1 L2 (verification) with D3H44 light chain F98A [3] of 12.3. Besides, the H1 L1 of H1 L1:H1 L2 (screen) with D3H44 light chain P44W [6] was determined as 67.5; in the experiment with D3H44 light chain P44W [7] it was 53.6. Moreover, the H1 L1 of H1 L1:H1 L2 (verification) with D3H44 light chain P44W [6] is 47.1. Besides, the values for the H2 L1 of H2 L2:H2 L1 (screen) in the experiment with D3H44 light chain F98L [8] and with D3H44 light chain Y87G were 6.38 and 18.9, respectively.
On to “D3H44 heavy chain (Fab format) V37A_W103V”, for which, in the experiment with D3H44 light chain F98A [3], the H1 L2 of H1 L1:H1 L2 (screen) came to 25.3. In the experiment with D3H44 light chain F98L [9], the H2 L2 of H2 L2:H2 L1 (screen) stood at 54.8 and the H2 L2 of H2 L2:H2 L1 (verification) was 52. Further, in the experiment with D3H44 light chain F98W [4], the H2 L2 of H2 L2:H2 L1 (screen) is 53 and the H2 L2 of H2 L2:H2 L1 (verification) was determined as 23.3. In the experiment with D3H44 light chain P44W [6], the H1 L1 of H1 L1:H1 L2 (screen) was 58.9. In the experiment with D3H44 light chain P44W [7], this substance showed an H2 L1 of H2 L2:H2 L1 (screen) of 18.6 and an H2 L1 of H2 L2:H2 L1 (verification) of 44.7. In the experiment with D3H44 light chain P44W [10], this substance showed an H2 L1 of H2 L2:H2 L1 (screen) of 22.8 and an H2 L1 of H2 L2:H2 L1 (verification) of 23.
In [11], D3H44 heavy chain (Fab format) V37E had an H1 L1 of H1 L1:H1 L2 (screen) of 54.1 and an H1 L1 of H1 L1:H1 L2 (verification) of 90.9. Moreover, in experiment [12], the H1 L2 of H1 L1:H1 L2 (screen) was found to be 25 and the H1 L2 of H1 L1:H1 L2 (verification) turned out to be 16.5.
For D3H44 heavy chain (Fab format) V37I, the H2 L1 of H2 L2:H2 L1 (screen) stood at 28.7 with D3H44 light chain F98A [13], 30.9 with D3H44 light chain F98A [18] and 21.7 in the experiment with D3H44 light chain F98L [19]. In the experiment with D3H44 light chain F98L [14], the H1 L2 of H1 L1:H1 L2 (screen) amounted to 7.34. The H2 L2 of H2 L2:H2 L1 (screen) is 66.5 with D3H44 light chain F98W [15], 72.6 in experiment [16] and 65.7 with D3H44 light chain F98W [17]. In experiment [20], this substance yielded an H1 L1 of H1 L1:H1 L2 (screen) of 78.5.
In the experiment with D3H44 light chain F98L [9], “D3H44 heavy chain (Fab format) V37I_F100W” had an H2 L2 of H2 L2:H2 L1 (screen) of 67.3 and an H2 L2 of H2 L2:H2 L1 (verification) of 30.5. In the experiment with D3H44 light chain P44W [10], this substance returned an H2 L1 of H2 L2:H2 L1 (screen) of 26.9 and an H2 L1 of H2 L2:H2 L1 (verification) of 47.9.
With “D3H44 heavy chain (Fab format) V37S_A97K”, in experiment [21], the H2 L1 of H2 L2:H2 L1 (screen) came to 0.5 and the H2 L1 of H2 L2:H2 L1 (verification) came to 11.7. In the experiment with D3H44 light chain F98Y, the H2 L2 of H2 L2:H2 L1 (screen) worked out at 71.6 and the H2 L2 of H2 L2:H2 L1 (verification) worked out at 65.6.
With D3H44 heavy chain (Fab format) V37W, the H1 L1 of H1 L1:H1 L2 (screen) was 64.1 in the experiment with D3H44 light chain F98A [13] and 62.4 with D3H44 light chain F98A [18]. Also, the H1 L2 of H1 L1:H1 L2 (screen) in the experiment with D3H44 light chain F98W [15] is 23.5; in experiment [16], 28.8. The H1 L2 of H1 L1:H1 L2 (verification) with D3H44 light chain F98W [15] stood at 23.4. Besides, the H2 L2 of H2 L2:H2 L1 (screen) in the experiment with D3H44 light chain F98A [3] is 83.1; with D3H44 light chain F98A [22], 65.9; with D3H44 light chain F98A [23] it was 48.9. For the same substance, the H2 L2 of H2 L2:H2 L1 (verification) with D3H44 light chain F98A [22] amounted to 70.5; in the experiment with D3H44 light chain F98A [23], 47.8. Moreover, the H2 L1 of H2 L2:H2 L1 (screen) amounted to 9.41 with D3H44 light chain P44W [6], 8.05 in the experiment with D3H44 light chain Q38E and 26.8 with D3H44 light chain Q38R. Besides, the H2 L1 of H2 L2:H2 L1 (verification) in the experiment with D3H44 light chain Q38E was determined as 10.3; with D3H44 light chain Q38R, 26.7. The substance further yielded an H1 L1 of H1 L1:H1 L2 (verification) in the experiment with D3H44 light chain F98A [18] of 61.5.
For the substance “D3H44 heavy chain (Fab format) V37W_W103H”, the H1 L2 of H1 L1:H1 L2 (screen) in the experiment with D3H44 light chain F98W [17] stood at 30; with D3H44 light chain P44W [2] it was 29.2. Further, the figures for the H1 L2 of H1 L1:H1 L2 (verification) with D3H44 light chain F98W [17] and with D3H44 light chain P44W [2] were 30.5 and 21.2, respectively. Further, the H1 L1 of H1 L1:H1 L2 (screen) in the experiment with D3H44 light chain F98L [19] was found to be 57.2; in the experiment with D3H44 light chain F98L [8], 48.3. The H1 L1 of H1 L1:H1 L2 (verification) with D3H44 light chain F98L [19] was 62.3; in the experiment with D3H44 light chain F98L [8] it was 56.
